Among the data in patent US20240383993A1 are EC50 and Max (MFI) values, retold here.

Assay [1] has as its target His-tagged cynomolgus 4-1BB protein (cynomolgus) (UniProt A9YYE7). As to the kind of experiment: ELISA, coated His-tagged 4-1BB, anti-human IgG-HRP.
The target in assay [2] is human 4-1BB expressed on cells (human) (UniProt Q07011). Briefly: flow cytometry on CHO-K1/hu4-1BB cells, anti-human Fc-Alexa Fluor 633. A general note: In flow cytometry, cells or beads pass a laser one at a time.
Sequence of human 4-1BB expressed on cells (human) (Q07011 24-255): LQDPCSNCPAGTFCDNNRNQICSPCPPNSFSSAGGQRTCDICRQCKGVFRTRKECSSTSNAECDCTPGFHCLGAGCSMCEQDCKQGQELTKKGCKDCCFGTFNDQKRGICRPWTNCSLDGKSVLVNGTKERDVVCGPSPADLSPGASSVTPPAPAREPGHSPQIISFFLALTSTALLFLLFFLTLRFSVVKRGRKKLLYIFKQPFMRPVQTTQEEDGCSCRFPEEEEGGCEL

Sequence of His-tagged cynomolgus 4-1BB protein (cynomolgus) (A9YYE7 entry or part of it): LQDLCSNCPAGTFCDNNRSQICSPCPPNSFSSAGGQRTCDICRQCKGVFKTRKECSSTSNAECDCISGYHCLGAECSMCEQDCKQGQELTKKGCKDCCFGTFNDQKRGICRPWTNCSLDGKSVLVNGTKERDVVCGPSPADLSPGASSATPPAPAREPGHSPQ

B1: VV02-1LP-288 (Fc fusion, not shown: a dimerising Fc or GST; small tags and cut ends)
VHH: EVQVVESGGGLVQPGGSLRLSCAASGSSLDYSAIGWFRQAPGKEREGVLCISSSGDVTIYADSVKGRFTISRDNAKNTVYLQMNSLKPEDTAVYYCVAPRICSTYSSDDYWGQGTQVTVSS
A word on the EC50: it is the midpoint of the concentration-response curve. A high value points to weaker potency. In assay [1], B1 registered an EC50 greater than 30 nM.

B2: VV02-1LP-417 (Fc fusion, not shown: a dimerising Fc or GST; small tags and cut ends)
VHH: QLQLVESGGGLVQPGGSLRLSCAASGFALDYSAIGWFRQAPGKEREGVLCISSSGDVTIYADSVKGRFTISRDNAKNTVYLQMNSLKPEDTAVYYCVAPRICSTYSSDDYWGQGTQVTVSS
For B2, in assay [1], the EC50 is greater than 30 nM.

B3: VV02-1SP (1)-73 huNb_1_1 (Fc fusion, not shown: a dimerising Fc or GST)
VHH: EVQLLESGGGLVQPGGSLRLSCAASGFTFSSSAMSWARQAPGKGLEWVSSIYSSGKTYYVESVKGRFTISRDNSKNTLYLQMNSLRAEDTAVYYCAKWKTLRVGVWDESDYWGQGTLVTVSS
On to B3, for which, in assay [2], the Max (MFI) is 233 MFI.
